Experimental data published in publication PMC6462090.

Key:
[1] = target: USP9X catalytic domain C1727A (human) (UniProt Q93008)
[2] = target: USP9X catalytic domain H1729A (human) (UniProt Q93008)

Ub-AMC (from UniProt P0CG48 1-76) showed a Km for hydrolysis of Ub-AMC, fold increase against WT [1] of 5 fold and a Km for hydrolysis of Ub-AMC, fold increase against WT [2] of 7 fold.
